Patent US20240301085A1

Experiments:
[1] = biological target: human GPC3-His protein (human) (UniProt P51654); experiment: ELISA, coated human GPC3-His, antibody 1 nM
[2] = biological target: monkey GPC3-His protein (monkey); experiment: ELISA, coated monkey GPC3-His, antibody 1 nM
[3] = biological target: human GPC3, full length, on cells (human) (UniProt P51654); experiment: FACS on HepG2 cells
[4] = biological target: monkey GPC3-His protein (monkey); experiment: ELISA, coated monkey GPC3-His, antibody 10 nM
[5] = biological target: monkey GPC3-His protein (monkey); experiment: ELISA, coated monkey GPC3-His, antibody 0.1 nM
[6] = biological target: human GPC3-His protein (human) (UniProt P51654); experiment: ELISA, coated human GPC3-His, antibody 10 nM
[7] = biological target: human GPC3, full length, on cells (human) (UniProt P51654); experiment: FACS on CHO-K1 clone CHOK1-hGPC3.1C3
[8] = biological target: murine GPC3-His protein (murine) (UniProt Q8CFZ4); experiment: ELISA, coated murine GPC3-His, antibody 100 nM
Chain of UniProt Q8CFZ4 (Q8CFZ4 25-558 limits assumed): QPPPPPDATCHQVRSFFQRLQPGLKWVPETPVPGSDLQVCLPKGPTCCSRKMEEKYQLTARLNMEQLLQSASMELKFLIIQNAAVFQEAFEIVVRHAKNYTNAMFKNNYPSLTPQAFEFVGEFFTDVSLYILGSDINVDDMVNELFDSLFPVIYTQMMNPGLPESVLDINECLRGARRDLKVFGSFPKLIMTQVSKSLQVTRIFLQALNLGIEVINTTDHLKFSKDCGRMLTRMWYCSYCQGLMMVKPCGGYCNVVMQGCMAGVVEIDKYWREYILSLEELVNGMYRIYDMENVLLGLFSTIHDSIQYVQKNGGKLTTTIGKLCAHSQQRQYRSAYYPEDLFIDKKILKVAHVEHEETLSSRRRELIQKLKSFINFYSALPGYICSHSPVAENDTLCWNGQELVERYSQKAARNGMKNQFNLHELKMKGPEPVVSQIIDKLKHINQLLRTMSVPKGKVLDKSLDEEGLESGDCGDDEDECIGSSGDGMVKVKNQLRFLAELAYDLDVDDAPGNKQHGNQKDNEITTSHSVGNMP

[9] = biological target: Polypeptide GC3pep of human GPC3 (Ala524-Lys563) (human); experiment: ELISA, coated GC3pep, antibody 100 nM
Chain of Polypeptide GC3pep of human GPC3 (Ala524-Lys563) (human) (peptide, as listed by the source): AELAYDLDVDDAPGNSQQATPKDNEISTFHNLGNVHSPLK

[10] = biological target: Polypeptide GC3pep of human GPC3 (Ala524-Lys563) (human); experiment: ELISA, coated GC3pep, antibody 0.001 nM
[11] = biological target: monkey GPC3-His protein (monkey); experiment: ELISA, coated monkey GPC3-His, antibody 100 nM
[12] = biological target: murine GPC3-His protein (murine) (UniProt Q8CFZ4); experiment: ELISA, coated murine GPC3-His, antibody 0.001 nM
[13] = biological target: murine GPC3-His protein (murine) (UniProt Q8CFZ4); experiment: ELISA, coated murine GPC3-His, antibody 0.01 nM
[14] = biological target: Polypeptide GC3pep of human GPC3 (Ala524-Lys563) (human); experiment: ELISA, coated GC3pep, antibody 0.1 nM
[15] = biological target: human GPC3-His protein (human) (UniProt P51654); experiment: ELISA, coated human GPC3-His, antibody 0.001 nM
[16] = biological target: monkey GPC3-His protein (monkey); experiment: ELISA, coated monkey GPC3-His, antibody 0.001 nM
[17] = biological target: monkey GPC3-His protein (monkey); experiment: ELISA, coated monkey GPC3-His, antibody 0.01 nM
[18] = biological target: human GPC3-His protein (human) (UniProt P51654); experiment: ELISA, coated human GPC3-His, antibody 0.1 nM
[19] = biological target: monkey GPC3-His protein (monkey); experiment: ELISA, coated monkey GPC3-His, antibody 0.1 nM; remark: listed apart in the source
[20] = biological target: human GPC3, full length, on cells (human) (UniProt P51654); experiment: FACS on CHO-K1 clone CHOK1-hGPC3.3E9
[21] = biological target: human GPC3, full length, on cells (human) (UniProt P51654); experiment: FACS on CHO-K1-human GPC3 cells
[22] = biological target: human GPC3, full length, on cells (human) (UniProt P51654); experiment: FACS on HepG2 cells, control in the row of Y035
[23] = biological target: human GPC3-His protein (human) (UniProt P51654); experiment: ELISA, coated human GPC3-His, antibody 100 nM
[24] = biological target: monkey GPC3-His protein (monkey); experiment: ELISA, coated monkey GPC3-His, antibody 0.0001 nM
[25] = biological target: human GPC3-His protein (human) (UniProt P51654); experiment: ELISA, coated human GPC3-His, antibody 0.01 nM
[26] = biological target: murine GPC3-His protein (murine) (UniProt Q8CFZ4); experiment: ELISA, coated murine GPC3-His, antibody 10 nM
[27] = biological target: monkey GPC3-His protein (monkey); experiment: ELISA, coated monkey GPC3-His, antibody 1 nM; remark: listed apart in the source
[28] = biological target: human GPC3-His protein (human) (UniProt P51654); experiment: ELISA, coated human GPC3-His, antibody 0.001 nM; remark: listed apart in the source
[29] = biological target: human GPC3, full length, on cells (human) (UniProt P51654); experiment: FACS on HepG2 cells, control in the row of T2-23
[30] = biological target: murine GPC3-His protein (murine) (UniProt Q8CFZ4); experiment: ELISA, coated murine GPC3-His, antibody 0.1 nM
[31] = biological target: murine GPC3-His protein (murine) (UniProt Q8CFZ4); experiment: ELISA, coated murine GPC3-His, antibody 0.0001 nM
[32] = biological target: human GPC3-His protein (human) (UniProt P51654); experiment: ELISA, coated human GPC3-His, antibody 10 nM; remark: listed apart in the source
[33] = biological target: Polypeptide GC3pep of human GPC3 (Ala524-Lys563) (human); experiment: ELISA, coated GC3pep, antibody 0.01 nM
[34] = biological target: human GPC3-His protein (human) (UniProt P51654); experiment: ELISA, coated human GPC3-His, antibody 0.0001 nM
[35] = biological target: Polypeptide GC3pep of human GPC3 (Ala524-Lys563) (human); experiment: ELISA, coated GC3pep, antibody 1 nM
[36] = biological target: murine GPC3-His protein (murine) (UniProt Q8CFZ4); experiment: ELISA, coated murine GPC3-His, antibody 0.01 nM; remark: listed apart in the source
[37] = biological target: human GPC3-His protein (human) (UniProt P51654); experiment: ELISA, coated human GPC3-His, antibody 0.1 nM; remark: listed apart in the source
[38] = biological target: murine GPC3-His protein (murine) (UniProt Q8CFZ4); experiment: ELISA, coated murine GPC3-His, antibody 0.0001 nM; remark: listed apart in the source
[39] = biological target: human GPC3-His protein (human) (UniProt P51654); experiment: ELISA, coated human GPC3-His, antibody 100 nM; remark: listed apart in the source
[40] = biological target: murine GPC3-His protein (murine) (UniProt Q8CFZ4); experiment: ELISA, coated murine GPC3-His, antibody 100 nM; remark: listed apart in the source
[41] = biological target: Polypeptide GC3pep of human GPC3 (Ala524-Lys563) (human); experiment: ELISA, coated GC3pep, antibody 0.0001 nM
[42] = biological target: murine GPC3-His protein (murine) (UniProt Q8CFZ4); experiment: ELISA, coated murine GPC3-His, antibody 10 nM; remark: listed apart in the source
[43] = biological target: Polypeptide GC3pep of human GPC3 (Ala524-Lys563) (human); experiment: ELISA, coated GC3pep, antibody 100 nM; remark: listed apart in the source
[44] = biological target: human GPC3-His protein (human) (UniProt P51654); experiment: ELISA, coated human GPC3-His, antibody 0.0001 nM; remark: listed apart in the source
[45] = biological target: monkey GPC3-His protein (monkey); experiment: ELISA, coated monkey GPC3-His, antibody 10 nM; remark: listed apart in the source
[46] = biological target: monkey GPC3-His protein (monkey); experiment: ELISA, coated monkey GPC3-His, antibody 0.001 nM; remark: listed apart in the source
[47] = biological target: monkey GPC3-His protein (monkey); experiment: ELISA, coated monkey GPC3-His, antibody 100 nM; remark: listed apart in the source
[48] = biological target: murine GPC3-His protein (murine) (UniProt Q8CFZ4); experiment: ELISA, coated murine GPC3-His, antibody 1 nM
[49] = biological target: monkey GPC3-His protein (monkey); experiment: ELISA, coated monkey GPC3-His, antibody 0.0001 nM; remark: listed apart in the source
[50] = biological target: Polypeptide GC3pep of human GPC3 (Ala524-Lys563) (human); experiment: ELISA, coated GC3pep, antibody 10 nM
[51] = biological target: human GPC3-His protein (human) (UniProt P51654); experiment: ELISA, coated human GPC3-His, antibody 1 nM; remark: listed apart in the source
[52] = biological target: human GPC3-His protein (human) (UniProt P51654); experiment: ELISA, coated human GPC3-His, antibody 0.01 nM; remark: listed apart in the source
[53] = biological target: murine GPC3-His protein (murine) (UniProt Q8CFZ4); experiment: ELISA, coated murine GPC3-His, antibody 0.001 nM; remark: listed apart in the source
[54] = biological target: monkey GPC3-His protein (monkey); experiment: ELISA, coated monkey GPC3-His, antibody 0.01 nM; remark: listed apart in the source
[55] = biological target: human GPC3, full length, on cells (human) (UniProt P51654); experiment: FACS on CHO-K1 clone CHOK1-hGPC3.2B5
[56] = biological target: monkey GPC3, full length, on HEK293T cells (monkey); experiment: FACS on HEK293T-monkey GPC3 cells

OD450 [1]: 0.09
OD450 [2]: 0.044
Max MFI [3]: 110
OD450 [4]: 0.047
OD450 [5]: 0.045
OD450 [6]: 0.05
Mean fluorescence intensity of cells [7]: 19.3
OD450 [8]: 0.08
OD450 [9]: 0.06
OD450 [10]: 0.046
OD450 [11]: 0.056
OD450 [12]: 0.05
OD450 [13]: 0.05
OD450 [14]: 0.04
OD450 [15]: 0.048
OD450 [16]: 0.04
OD450 [17]: 0.044
OD450 [18]: 0.05
OD450 [19]: 0.04
Mean fluorescence intensity of cells [20]: 19.3
Max MFI [21]: 82
Mean fluorescence intensity of cells [22]: 137
OD450 [23]: 0.09
OD450 [24]: 0.05
OD450 [25]: 0.1
OD450 [26]: 0.055
OD450 [27]: 0.05
OD450 [28]: 0.09
Mean fluorescence intensity of cells [29]: 137
OD450 [30]: 0.05
OD450 [31]: 0.05
OD450 [32]: 0.1
OD450 [33]: 0.046
OD450 [34]: 0.047
OD450 [35]: 0.04
OD450 [36]: 0.052
OD450 [37]: 0.09
OD450 [38]: 0.049
OD450 [39]: 0.072
OD450 [40]: 0.105
OD450 [41]: 0.06
OD450 [42]: 0.07
OD450 [43]: 0.069
OD450 [44]: 0.09
OD450 [45]: 0.08
OD450 [46]: 0.044
OD450 [47]: 0.19
OD450 [48]: 0.05
OD450 [49]: 0.048
OD450 [50]: 0.04
OD450 [51]: 0.048
OD450 [52]: 0.048
OD450 [53]: 0.051
OD450 [54]: 0.05
Mean fluorescence intensity of cells [55]: 19.3
Max MFI [56]: 95
Substance: human IgG1 subtype control (antibody)
